From US20260240831A1, “CANCER STRATIFICATION AND TREATMENT” (Deutsches Krebsforschungszentrum Stiftung des öffentlichen …, priority 2023, published 2026)
“Also recorded” adds a separate entry of the source.

Key:
[1] = test system: GBM cells for SFRP1 overexpression; assay: SFRP1 inhibitor treatment of tumour-bearing human brain organoids, KI-67 immunohistochemistry; format: cell-based; settings: 25 μM, 2 days, vs DMSO control; SFRP1-overexpressing GBM cells in human brain organoids
Method: Lentivirally transduced GBM cells for SFRP1 overexpression were injected into day 116-old human brain organoids and cultured in brain Organoid Differentiation Medium with Vitamin A. Injected organoids were maintained for 15 days on an orbital shaker (70 RPM) at 5% CO2 and 37° C. After 15 days, organoids were transferred to culturing medium supplemented with 25 μM of SFRP1 inhibitor WAY-316606 or 25 μM DMSO as a control. Tumour-bearing organoids were maintained for 2 more days and then fixed with 4% formaldehyde for 1 hour at 4° C. on a roller. Fixed organoids were first placed in 10% sucrose in PBS until tissues sank, then transferred to 30% sucrose in PBS. Organoids were then embedded in OCT compound (Tissue-Tek). […]
Confocal images of human brain organoids injected with GBM m-Cherry- and sFRP1-expressing cells that were treated with DMSO or sFRP1 inhibitor. Organoids were stained against Ki67 and mCherry and Ki67+/mCherry+ cells were quantified. […] The tumor origin of segmented cells was determined by assessing background corrected mean fluorescence intensities of the 2D integrated mCherry signal. The count of detected Ki67+/mCherry+ cells was then normalized to the imaged organoid volume yielding a density metric representing cycling tumor cells in both WAY inhibitor treated and DMSO control samples.

PDX GBMs [2] = assay: Tumor IHC morphology of SFRP1-overexpressing PDX; format: in vivo; settings: mouse cortex, vs control Wnt-reporter PDX
T6 PDA = assay: scRNA-seq with ptalign cell states of SFRP1-overexpressing T6 PDA in human cortical organoids; format: cell-based; settings: 2-week PDA replicates, compared with PDX (not shown)
Method: For injection of lentivirally transduced primary GBM cells into human brain organoids, 3×10^4 cells were cultured as single cell suspension overnight. Newly formed spheres were resuspended in 1 μl of Differentiation Medium with vitamin A, loaded into a NanoFil syringe and injected into the core of 2 month-old organoids under a dissection microscope. Tumor bearing organoids were maintained in Differentiation Medium with vitamin A on an orbital shaker (70 RPM) for 15 days at 5% CO2 and 37° C.
In sequence alignment, the position of one query sequence in a larger reference sequence is ascertained by scoring local sequence similarity until an optimal match is found. We employ a conceptually similar strategy to infer a given query cell's optimal positioning in the space of a reference pseudotime trajectory in a method we call ptalign. The ptalign program requires four central inputs: a query counts table, a reference counts table, a reference pseudotime mapping, and a set of genes capturing the reference pseudotime trajectory. Query cells are then placed along the reference pseudotime according to the dynamic of the correlation of their gene expression along the trajectory genes. […] The quality of an assigned pseudotime is determined via the computation of a dynamic time warping (DTW) matrix over the pseudotime-binned reference and the equally binned query. […]

PDX GBMs [3] = assay: scRNA-seq with ptalign cell states of Wnt-antagonist-overexpressing PDX samples; format: in vivo, mouse; settings: for Activation state (ptalign cell state) / tumor Differentiation (ptalign aligned pseudotime) / tumor Quiescence (ptalign cell state, incl. astroQ): PDX vs control Wnt-reporter PDX
Method: For isolation of the xenografted human GBM cells, tumor bearing mouse brains were dissected and single cell suspension was prepared using Brain Tumor Dissociation Kit (P) and gentleMACS Octo Dissociator with Heaters (Miltenyi) according to manufacturer's instructions. mCherry+ cell population was index sorted into 384 well-plates (Eppendorf Lobind). Microplates containing cell lysates were briefly centrifuged, snap frozen on dry ice and were stored at −80° C. Sytox Blue (Life Technologies, 1:1000) was used in all experiments as a dead cell indicator. Index sorting of single cells as well as sorting of bulk samples was carried out using a 100 micron nozzle at a BD FACSAria II or BD FACSAria Fusion at the Flow Cytometry Core Facility at the DKFZ.
Single cell RNA-sequencing libraries from patient-derived xenografts were prepared using Smart-seq3 platform as previously described (Hagemann-Jensen, Nature Biotechnology, 2020) with minor modifications. The protocol was automated and miniaturized by incorporating liquid handling platforms including Mosquito HV (STPLabtech), Mantix (Formulatrix) and Viaflo 384 (Integra). Briefly, plates were incubated at 72° C. for 10 min to facilitate lysis and denaturation of secondary structures in the RNA. Lysed cells were subjected to reverse transcription in 2 μl using Maxima H-minus reverse transcriptase (Thermo Scientific), an oligo(dT) primer and a template-switching oligonucleotide encompassing an 8-bp unique molecular identifier (IDT). In a randomly selected set of wells, we included ERCC Spike-ins (Ambion) at a 1:2500000 dilution. Full length cDNAs were amplified for 22 cycles of PCR using KAPA HiFi DNA polymerase (KAPA Biosystems). cDNA samples were purified with Ampure XP beads at a 1:0.8 ratio and cDNA quality in randomly selected 10 wells/plate was assessed on a High Sensitivity Bioanalyzer chip (Agilent). cDNA concentrations were quantified using Quant-it PicoGreen dsDNA Assay kit (Thermo Scientific) and Synergy LX multi-mode microplate reader (Biotek). cDNAs were normalized to 250-500 pg μl^−1. 100-200 pg of cDNA per sample was used for tagmentation in 1.2 μl using Illumina XT DNA sample preparation kit. Libraries were finally amplified for 11 cycles of PCR in 4 μl using custom-designed Nextera index primers containing 8-bp index barcode sequences with a minimal Levenshtein distance of 4 as previously published (Buenrostro et al., Nature, 2015). Samples were purified with Ampure XP beads at a 1:0.8 ratio and DNA quality in randomly selected 10 wells/plate was assessed on a High Sensitivity Bioanalyzer chip (Agilent). Libraries were quantified as mentioned above and normalized libraries were equimolarly pooled and purified one last time at a 1:0.8 ratio. Prior to sequencing, final library concentration was determined using Qubit dsDNA High Sensitivity Assay kit (Thermo Scientific) and Qubit fluorometer (Invitrogen) and the average fragment size was calculated on a High Sensitivity Bioanalyzer chip (Agilent). Libraries with 1% spiked-in PhiX control (Illumina) were sequenced at the 75-bp paired end on a high output flow cell using an Illumina NextSeq550 instrument at a sequencing depth of ~1 M reads per cell at the sequencing open lab at the DKFZ.
In sequence alignment, the position of one query sequence in a larger reference sequence is ascertained by scoring local sequence similarity until an optimal match is found. We employ a conceptually similar strategy to infer a given query cell's optimal positioning in the space of a reference pseudotime trajectory in a method we call ptalign. The ptalign program requires four central inputs: a query counts table, a reference counts table, a reference pseudotime mapping, and a set of genes capturing the reference pseudotime trajectory. Query cells are then placed along the reference pseudotime according to the dynamic of the correlation of their gene expression along the trajectory genes. […]

PDX GBMs [4] = assay: Survival of mice bearing Wnt-antagonist-overexpressing T6 PDX GBM; format: in vivo, mouse; settings: for overall survival: overexpression under TCF/Lef promoter in PDX vs Wnt-reporter controls
Source text: We identified the secreted Wnt antagonist SFRP1 as being implicated in the Q-A transition in the healthy SVZ. […] Similarly, [22] reports a role of SFRP1 in regulating the activation of human NSCs, and data from our own lab implicates its most-conserved paralog, SFRP5, in the activation of murine NSCs. Following these evidences and in order to target Wnt-active tumor cells, we cloned human SFRP1 downstream of the TCF/Lef promoter and generated T6 PDA and PDX tumors as outlined previously.
To allow sorting of human GBM cells, cells were infected with the 7TGC (Addgene plasmid #24304) lentiviral vector at a multiplicity of infection (MOI) of 5. Expression of the transduction marker (mCherry) was confirmed by FACS analysis. Second-generation, self-inactivating, replication deficient lentiviral particles were produced, purified and titrated as described previously ([32]).
For ortotopic injection of lentivirally transduced primary GBM cells into the mouse brain, 5×10^5 cells were cultured as single cell suspension overnight. Newly formed spheres were resuspended in 2 μl of Matrigel, loaded into a NanoFil syringe and stereotactically injected into the striatum (2.5 mm lateral to the bregma at a depth of 3.0 mm) of 8-10 week-old Fox Chase SCID-Beige mice under anesthesia. Tumor growth was longitudinally monitored by magnetic resonance imaging at the Small Animal Imaging Center at the DKFZ. Upon reaching termination criteria, mice were sacrificed and brains were collected after transcardial perfusion. For perfusion, mice were anesthetized by intraperitoneal injection of 800 μl of perfusion solution. After opening the thoracic cavity exposing heart, transcardial perfusion was carried out with 10 ml of ice cold HBSS.

| Molecule | number of proliferating (KI-67+/mCherry+) tumor cells [1] | tumor cell morphology (IHC) (PDX GBMs [2]) | effects on Quiescence, Activation and cycling cells in PDA (T6 PDA) | cycling cells (PDX GBMs [3]; PDX vs control) | Activation state (ptalign cell state) (PDX GBMs [3]) | tumor Differentiation (ptalign aligned pseudotime) (PDX GBMs [3]) | tumor Quiescence (ptalign cell state, incl. astroQ) (PDX GBMs [3]) | survival longer than control, on average (PDX GBMs [4]; SFRP1 induction in PDX GBMs, before the experiment was terminated) [month] | overall survival (PDX GBMs [4]) | overall survival (PDX GBMs [4]; listed as sFRP1) |
| --- | --- | --- | --- | --- | --- | --- | --- | --- | --- | --- |
| O=S(=O)(NC1CCNCC1)c1cc(S(=O)(=O)c2ccccc2)ccc1C(F)(F)F [WAY-316606, 5-(phenylsulfonyl)-N-4-piperidinyl-2-(trifluoromethyl)-benzenesulfonamide] | drastically increases the number of proliferating cells |  |  |  |  |  |  |  |  |  |
| SFRP1: secreted Wnt antagonist; human SFRP1 cloned downstream of the TCF/Lef promoter, lentivirally overexpressed in GBM cells (protein, UniProt Q8N474 32-314, looked up) Secreted frizzled-related …: SEYDYVSFQSDIGPYQSGRFYTKPPQCVDIPADLRLCHNVGYKKMVLPNLLEHETMAEVKQQASSWVPLLNKNCHAGTQVFLCSLFAPVCLDRPIYPCRWLCEAVRDSCEPVMQFFGFYWPEMLKCDKFPEGDVCIAMTPPNATEASKPQGTTVCPPCDNELKSEAIIEHLCASEFALRMKIKEVKKENGDKKIVPKKKKPLKLGPIKKKDLKKLVLYLKNGADCPCHQLDNLSHHFLIMGRKVKSQYLLTAIHKWDKKNKEFKNFMKKMKNHECPTFQSVFK |  | extensive morphological changes; also recorded: dominant astrocyte-like morphology | consistent yet weaker | relative increase in cycling cells | concomitant reduction in the Activation state | without disturbing differentiation; also recorded: not affected | significantly increased quiescence; also recorded: significant increase in tumor Quiescence | 1 | significant increase in overall survival | significantly increased survival |
| NOTUM: Wnt antagonist notum polypeptide (Genbank Acc No. NP_848588.3), overexpressed in PDX GBM cells (protein, UniProt Q6P988 20-496, looked up) Palmitoleoyl-protein …: SEGRKTWRRRGQQPPPPPRTEAAPAAGQPVESFPLDFTAVEGNMDSFMAQVKSLAQSLYPCSAQQLNEDLRLHLLLNTSVTCNDGSPAGYYLKESRGSRRWLLFLEGGWYCFNRENCDSRYDTMRRLMSSRDWPRTRTGTGILSSQPEENPYWWNANMVFIPYCSSDVWSGASSKSEKNEYAFMGALIIQEVVRELLGRGLSGAKVLLLAGSSAGGTGVLLNVDRVAEQLEKLGYPAIQVRGLADSGWFLDNKQYRHTDCVDTITCAPTEAIRRGIRYWNGVVPERCRRQFQEGEEWNCFFGYKVYPTLRCPVFVVQWLFDEAQLTVDNVHLTGQPVQEGLRLYIQNLGRELRHTLKDVPASFAPACLSHEIIIRSHWTDVQVKGTSLPRALHCWDRSLHDSHKASKTPLKGCPVHLVDSCPWPHCNPSCPTVRDQFTGQEMNVAQFLMHMGFDMQTVAQPQGLEPSELLGMLSNGS |  |  |  |  | concomitant reduction in activation | without disturbing differentiation | significantly increased quiescence |  | significantly increased survival |  |
